Patent US20100316632A1

Key:
[1] = target: CD40 receptor (human), on CD14+ monocytes (human) (UniProt P25942)
[2] = target: CD40 receptor (human), on CD14+ monocytes (human) (UniProt P25942); remark: listed apart in the source

TNF-α production by CD14+ monocytes (ELISA of supernatant after 24 h) [1]: 449 pg/mL
IL-1β production by purified CD14+ cells of MDS patients (ELISA) [2]: 18 pg/mL
IL-6 production by purified CD14+ cells of MDS patients (ELISA) [2]: 1210 pg/mL
IL-10 production by purified CD14+ cells of MDS patients (ELISA) [2]: 1650 pg/mL
Substance: clone 64 (agonist anti-human CD40 monoclonal antibody, PanGenetics, The Netherlands)
